In publication PMC7291619 one finds stoichiometry N (TbSpef1 per α/β-tubulin dimer) data, which are given here for one substance.

In the assay the target is in vitro-polymerized and paclitaxel-stabilized microtubules (UniProt P02554). The assay can be described thus: co-sedimentation; varied concentrations of purified His-TbSpef1 incubated with in vitro-assembled, paclitaxel-stabilized microtubules at room temperature for 30 min; diluted in cushion buffer (80 mM PIPES pH 7.0, 1 mM MgCl2, 1 mM EGTA, 60% glycerol, 20 uM paclitaxel); 100,000 x g, 30°C, 30 min; pellets and supernatants immunoblotted.
Chain of in vitro-polymerized and paclitaxel-stabilized microtubules (P68363 whole entry, chain 1 of 2): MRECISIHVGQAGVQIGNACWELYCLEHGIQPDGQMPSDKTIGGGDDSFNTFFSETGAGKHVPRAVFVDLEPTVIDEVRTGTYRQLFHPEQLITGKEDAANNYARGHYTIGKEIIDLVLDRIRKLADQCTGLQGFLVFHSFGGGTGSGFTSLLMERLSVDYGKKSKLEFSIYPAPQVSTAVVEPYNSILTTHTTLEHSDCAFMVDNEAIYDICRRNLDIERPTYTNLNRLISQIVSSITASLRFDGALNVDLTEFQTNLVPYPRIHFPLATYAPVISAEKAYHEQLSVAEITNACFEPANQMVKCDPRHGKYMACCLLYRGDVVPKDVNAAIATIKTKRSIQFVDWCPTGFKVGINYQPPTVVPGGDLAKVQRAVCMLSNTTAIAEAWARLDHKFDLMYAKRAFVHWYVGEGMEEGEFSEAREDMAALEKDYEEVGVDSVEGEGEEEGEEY
Chain of in vitro-polymerized and paclitaxel-stabilized microtubules (P02554 whole entry, chain 2 of 2): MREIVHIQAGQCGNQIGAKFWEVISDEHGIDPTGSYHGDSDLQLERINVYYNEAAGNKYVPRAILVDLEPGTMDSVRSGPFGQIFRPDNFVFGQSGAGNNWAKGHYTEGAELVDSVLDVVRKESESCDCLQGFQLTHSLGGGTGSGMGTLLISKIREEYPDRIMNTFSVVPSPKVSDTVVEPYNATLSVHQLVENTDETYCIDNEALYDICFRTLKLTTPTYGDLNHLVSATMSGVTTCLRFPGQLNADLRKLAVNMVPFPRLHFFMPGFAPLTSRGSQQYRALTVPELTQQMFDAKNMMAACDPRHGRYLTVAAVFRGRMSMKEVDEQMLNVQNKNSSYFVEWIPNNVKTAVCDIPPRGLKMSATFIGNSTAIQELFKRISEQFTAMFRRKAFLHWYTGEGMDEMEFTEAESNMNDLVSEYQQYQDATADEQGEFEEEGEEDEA

For the substance His-TbSpef1 (natural protein), the stoichiometry N (TbSpef1 per α/β-tubulin dimer) was > 1.
